These results are taken from patent US20250340662A1.

The koff is the rate constant with which the complex falls apart. Low readings indicate slow dissociation, high ones fast dissociation. A word on the kon: it is the rate constant with which the complex forms.

Assay [1] has as its target T1, Human v6-peptide (human).
T1 sequence (peptide, N-terminal biotin): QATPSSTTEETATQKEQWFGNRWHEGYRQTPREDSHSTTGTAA
Put plainly: SPR SCK, biotin-peptide on SA chip, antibody injected.

In assay [2] the target is CD44v6 on cultured cancer cells (BHT-101, ACT-1, A431) (human) (UniProt P16070). Put plainly: LigandTracer, 177Lu-antibody on A431 cells.
Assay [3] has as its target Human CD44v6 iso4-Fc (human) (UniProt P16070). Put plainly: SPR SCK, antibody captured via anti-kappa, CD44v6-Fc injected; apparent KD.
For assay [4] the target is unchanged. Put plainly: SPR SCK, antibody captured via anti-kappa, CD44v6-Fc injected.
Assay [5] addresses T1, Human v6-peptide (human). Put plainly: SPR SCK, biotin-peptide on SA chip, antibody injected; apparent KD.
In another assay the target is FcyR1. Put plainly: SPR. In general terms: SPR reads the build-up and loss of mass on a sensor chip optically.
Chain of FcyR1 (P12314 16-292): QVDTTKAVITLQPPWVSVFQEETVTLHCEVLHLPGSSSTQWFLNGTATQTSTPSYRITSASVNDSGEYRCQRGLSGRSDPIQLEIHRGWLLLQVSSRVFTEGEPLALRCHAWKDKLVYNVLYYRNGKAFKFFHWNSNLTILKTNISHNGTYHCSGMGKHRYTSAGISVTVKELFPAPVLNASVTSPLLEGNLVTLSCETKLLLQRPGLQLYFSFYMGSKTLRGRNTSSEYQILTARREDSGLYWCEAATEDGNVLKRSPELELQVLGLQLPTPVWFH

Chain of Human CD44v6 iso4-Fc (human) (P16070 other isoform, or with tags, fused parts or gaps limits assumed): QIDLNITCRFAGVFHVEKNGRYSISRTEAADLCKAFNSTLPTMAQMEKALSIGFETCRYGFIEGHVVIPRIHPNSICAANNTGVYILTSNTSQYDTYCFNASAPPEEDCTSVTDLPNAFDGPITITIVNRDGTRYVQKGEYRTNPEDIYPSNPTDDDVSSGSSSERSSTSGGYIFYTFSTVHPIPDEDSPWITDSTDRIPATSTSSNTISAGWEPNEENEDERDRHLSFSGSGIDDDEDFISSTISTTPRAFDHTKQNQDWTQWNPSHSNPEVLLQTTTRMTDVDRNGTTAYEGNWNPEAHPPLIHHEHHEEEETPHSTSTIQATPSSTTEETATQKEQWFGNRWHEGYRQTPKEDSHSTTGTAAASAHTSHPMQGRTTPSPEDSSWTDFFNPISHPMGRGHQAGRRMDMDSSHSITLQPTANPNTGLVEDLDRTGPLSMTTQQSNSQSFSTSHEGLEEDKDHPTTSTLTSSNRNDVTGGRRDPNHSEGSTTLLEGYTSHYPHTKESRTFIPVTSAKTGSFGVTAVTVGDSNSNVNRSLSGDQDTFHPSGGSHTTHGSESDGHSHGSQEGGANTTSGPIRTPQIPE

For BIWA-4 IgG4 S228P (antibody), the koff with Human v6-peptide (human) [1] is 0.00017 s⁻¹; in assay [4] it was 0.00031 s⁻¹. The kon with Human v6-peptide (human) [1] is 190000 M⁻¹ s⁻¹; in assay [4] it was 6500 M⁻¹ s⁻¹. The Kd is 0.3 nM in assay [2], 48 nM in assay [3] and 0.88 nM in the assay with Human v6-peptide (human) [5].
For Herceptin (antibody), in the assay with FcyR1, the Kd stood at 0.18 nM.
